Publication PMC3115021, “Dynamics of Cdk1 Substrate Specificity during the Cell Cycle” (Molecular Cell, 2011)

B1: TOS4: putative transcription factor, tested as Cdk1 substrate (protein, UniProt Q06266 1-489, looked up)
Protein TOS4: MSSQFPSSPYRTVDPYSPPNYKQQPNCPSSNYEKAGKTASESIGNFGKGDYPTPFPSSSIGRVSSPVRSNKVDAIPSSPAFPGQLAETSPKFSSKLSSPSRHTRVINAELDPSKISTITVGRNSSQCDVALCKNKFISRVHASITYLPQTNEVKIHCFSMNGLIVTYRKQFDCYQLKDTMNNNNRAYRLVPRFSNEKCVKEIQDEGGFINFTLEEGDTVYMTYYKGIMLDFRQVLLRISLKEKNSSSEPLRFEKKAEFESESETKHMGSIRKHPLIFTDTSMDRPKKILKDSNKISIGSDSGVAERMLNHFLNSKSSPLSSVSSVDHEEQTLRQDSLSSDKNPMTMKKPKLNKRVLPSKPKKSVKENLDELSRRNIDVMHLQHILTNHLAFANVQQTPLFQLQQVNSQISELSRDELRSILSDAKCVGVIYRHGKDAAGKPLDEEYFYDLENDDDYERRNLVSSLKGGRTGLRSCRRTHKQYFWKKPAK
B2: YHP1: purified yeast protein tested as Cdk1 substrate (protein, UniProt Q04116 1-353, looked up)
Homeobox protein YHP1: MESRNTVLPSLPNIITGTSNSPFQLHTLPNTNFPSDDQGDIRLPPLAASAHIVRPVVNIYKSPCDEERPKRKSPQAVDFLSQRVTTSMTPLSKPKKLSSHSPFTPTVRVCSKEQPPQSMHSYKKVNILTPLSAAKAVLTPTTRKEKKRSFAFITHSQETFPKKEPKIDNARLARRKRRRTSSYELGILQTAFDECPTPNKAKRIELSEQCNMSEKSVQIWFQNKRQAAKKHKNSGNTSHCKVHSNDSMSMISYSDAALEITSTPTSTKEAITAELLKTSPANTSSIFEDHHITPCKPGGQLKFHRKSVLVKRTLSNTGHSEIIKSPKGKENRLKFNAYERKPLGEVDLNSFKN
B3: XBP1: purified yeast protein tested as Cdk1 substrate (protein, UniProt P40489 1-647, looked up)
Transcriptional repressor XBP1: MKYPAFSINSDTVHLTDNPLDDYQRLYLVSVLDRDSPPASFSAGLNIRKVNYKSSIAAQFTHPNFIISARDAGNGEEAAAQNVLNCFEYQFPNLQTIQSLVHEQTLLSQLASSATPHSALHLHDKNILMGKIILPSRSNKTPVSASPTKQEKKALSTASRENATSSLTKNQQFKLTKMDHNLINDKLINPNNCVIWSHDSGYVFMTGIWRLYQDVMKGLINLPRGDSVSTSQQQFFCKAEFEKILSFCFYNHSSFTSEESSSVLLSSSTSSPPKRRTSTGSTFLDANASSSSTSSTQANNYIDFHWNNIKPELRDLICQSYKDFLINELGPDQIDLPNLNPANFTKRIRGGYIKIQGTWLPMEISRLLCLRFCFPIRYFLVPIFGPDFPKDCESWYLAHQNVTFASSTTGAGAATAATAAANTSTNFTSTAVARPRQKPRPRPRQRSTSMSHSKAQKLVIEDALPSFDSFVENLGLSSNDKNFIKKNSKRQKSSTYTSQTSSPIGPRDPTVQILSNLASFYNTHGHRYSYPGNIYIPQQRYSLPPPNQLSSPQRQLNYTYDHIHPVPSQYQSPRHYNVPSSPIAPAPPTFPQPYGDDHYHFLKYASEVYKQQNQRPAHNTNTNMDTSFSPRANNSLNNFKFKTNSKQ
B4: WHI5: repressor of the G1-specific SBF transcription factor, tested as Cdk1 substrate (protein, UniProt Q12416 1-295, looked up)
G1-specific transcriptional …: MSLRTPKRSRTSDEQEQEQEQEQVQNPDTHVNNEHQQRPGPTTLLSTPVRLKNGFGTPSPPSPPGITKSITKSRRRPSTTSLQGIFMSPVNKRRVGITAHGRVYDHNDDGHESESEDDENEEENENQKKYDGHVSMPLLPPTTPKSRRSEVFLSPSPRLRSPPTAARRSTGERPIREISHTLRTRLNYALVKLQNGWTDKTLPELETELAPAVQTPPRRYHNRFPDSADAGTSAHTAFLQALGGHPPREEATAVETLMLLSSPTKKQQHRPVPATSAGEPTDETEPESDTEVETS
B5: SWI6: cell cycle-related transcription factor, tested as Cdk1 substrate (protein, UniProt P09959 1-803, looked up)
Regulatory protein SWI6: MALEEVVRYLGPHNEIPLTLTRDSETGHFLLKHFLPILQQYHDTGNINETNPDSFPTDEERNKLLAHYGIAVNTDDRGELWIELEKCLQLLNMLNLFGLFQDAFEFEEPETDQDEEDPSHSKLPENKTKSENSKDNISSKRINNLQDMSLDSDAHRELGSPLKKLKIDTSVIDAESDSTPNTARGKPNDDINKGPSGDNENNGTDDNDRTAGPIITFTHDLTSDFLSSPLKIMKALPSPVVNDNEQKMKLEAFLQRLLFPEIQEMPTSLNNDSSNRNSEGGSSNQQQQHVSFDSLLQEVNDAFPNTQLNLNIPVDEHGNTPLHWLTSIANLELVKHLVKHGSNRLYGDNMGESCLVKAVKSVNNYDSGTFEALLDYLYPCLILEDSMNRTILHHIIITSGMTGCSAAAKYYLDILMGWIVKKQNRPIQSGTNEKESKPNDKNGERKDSILENLDLKWIIANMLNAQDSNGDTCLNIAARLGNISIVDALLDYGADPFIANKSGLRPVDFGAGTSKLQNTNGGDENSKMVSKGDYDGQKNGKAKKIRSQLLKNPPETTSLINDVQNLLNSISKDYENETVQYNEKLEKLHKELNEQREELANSREQLANVKQLKDEYSLMQEQLTNLKAGIEEEEESFREESKKLGIIADESSGIDWDSSEYDADEPFKVEFLSDFLEDKLQKNYEGDISKLLEAESKEQIMEQIRNQLPAEKIQSMLPPTVLLKARINAYKRNDKHLTNVLDTISTKQSELENKFRRVLSLCLKIDENKVDNMLDGLLQAISSEDPQDIDTDEMQDFLKKHAS

Molecular target: T1, Clb3-Cdk1 (Saccharomyces cerevisiae, UniProt P00546+P24870)
T1 construct: We purified the four cyclin-Cdk1 complexes from yeast; made in house; host or cells: S. cerevisiae strain DOM0957 (gal-CLB3-TAP, sic1 deleted); Cks1 from bacteria
T1 sequence (P00546 2-298 limits assumed): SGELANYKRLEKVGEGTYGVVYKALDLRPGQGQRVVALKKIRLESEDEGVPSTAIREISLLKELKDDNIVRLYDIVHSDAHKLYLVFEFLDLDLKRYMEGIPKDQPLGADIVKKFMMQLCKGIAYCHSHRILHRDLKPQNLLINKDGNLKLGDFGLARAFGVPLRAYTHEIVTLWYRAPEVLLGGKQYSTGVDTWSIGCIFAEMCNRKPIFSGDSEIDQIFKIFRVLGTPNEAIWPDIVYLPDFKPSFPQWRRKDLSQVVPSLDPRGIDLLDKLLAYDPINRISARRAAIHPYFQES
T1 sequence (P24870 whole entry partner): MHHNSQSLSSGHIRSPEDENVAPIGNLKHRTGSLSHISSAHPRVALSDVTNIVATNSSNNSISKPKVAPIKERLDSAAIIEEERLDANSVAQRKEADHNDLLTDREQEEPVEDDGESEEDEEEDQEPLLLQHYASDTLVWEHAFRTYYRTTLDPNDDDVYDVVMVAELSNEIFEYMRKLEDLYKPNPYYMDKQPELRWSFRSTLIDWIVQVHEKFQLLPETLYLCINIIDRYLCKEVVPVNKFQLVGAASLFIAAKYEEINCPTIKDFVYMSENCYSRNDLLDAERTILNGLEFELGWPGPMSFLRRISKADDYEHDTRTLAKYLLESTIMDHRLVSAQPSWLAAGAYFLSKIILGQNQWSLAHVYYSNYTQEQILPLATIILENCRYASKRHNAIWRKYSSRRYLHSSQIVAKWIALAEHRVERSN
T1 sequence (P20486 whole entry partner): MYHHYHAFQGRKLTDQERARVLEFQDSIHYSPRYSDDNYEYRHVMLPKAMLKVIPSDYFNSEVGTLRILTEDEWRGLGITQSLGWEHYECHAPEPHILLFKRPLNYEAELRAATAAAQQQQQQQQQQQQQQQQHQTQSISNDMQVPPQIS
Assay: Quantitative phosphorylation assay of T33-Sic1ΔC constructs and recombinant substrates
Assay type: biochemical
Conditions: Table S2; purified protein substrate; relative values, not divided by [S]

Going from B1 to B2, the “kcat/KM, Clb3” value falls from 8.484 relative units to 0.066 relative units.

Compared with B3, B4 is lower in “kcat/KM, Clb3” value: 0.065 relative units for the first, 0.033 relative units for the second.

B5 was tested, and the “kcat/KM, Clb3” value was 0.105 relative units.

Molecular target: T2, Clb2-Cdk1 (Saccharomyces cerevisiae, UniProt P00546+P24869)
T2 construct: We purified the four cyclin-Cdk1 complexes from yeast; made in house; host or cells: S. cerevisiae strain DOM0077 (gal-CLB2-TAP, sic1 deleted); Cks1 from bacteria
T2 sequence (P00546 2-298 limits assumed): as the sequence (P00546 2-298 limits assumed) above
T2 sequence (P24869 2-491 partner limits assumed): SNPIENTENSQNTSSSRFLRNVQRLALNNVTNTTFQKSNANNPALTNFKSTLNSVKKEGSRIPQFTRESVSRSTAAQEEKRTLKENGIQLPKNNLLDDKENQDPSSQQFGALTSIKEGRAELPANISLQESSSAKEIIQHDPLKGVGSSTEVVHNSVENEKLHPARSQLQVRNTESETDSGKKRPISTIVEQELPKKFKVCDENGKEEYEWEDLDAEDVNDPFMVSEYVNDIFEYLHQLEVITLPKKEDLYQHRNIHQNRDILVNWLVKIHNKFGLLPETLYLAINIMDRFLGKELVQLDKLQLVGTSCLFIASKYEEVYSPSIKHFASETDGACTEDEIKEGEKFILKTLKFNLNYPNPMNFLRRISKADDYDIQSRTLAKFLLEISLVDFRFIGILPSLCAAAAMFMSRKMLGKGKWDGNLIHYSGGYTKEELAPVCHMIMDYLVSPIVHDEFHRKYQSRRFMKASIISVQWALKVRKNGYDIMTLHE
T2 sequence (P20486 whole entry partner): as the sequence (P20486 whole entry partner) above
Assay: as above
Assay type: biochemical
Conditions: Table S2; purified protein substrate; relative values, not divided by [S]

First: B1
Second: B2
The “kcat/KM, Clb2” value of the first is higher: 2.373 relative units for the first, 0.385 relative units for the second.

Compared with B3, B4 is lower in “kcat/KM, Clb2” value: 0.103 relative units for the first, 0.046 relative units for the second.

With B5 the “kcat/KM, Clb2” value was 0.412 relative units.

Molecular target: T3, Cln2-Cdk1 (Saccharomyces cerevisiae, UniProt P00546+P20438)
T3 construct: We purified the four cyclin-Cdk1 complexes from yeast; made in house; host or cells: S. cerevisiae strain DMY305 (galactose-induced); Cks1 from bacteria
T3 sequence (P00546 2-298 limits assumed): as the sequence (P00546 2-298 limits assumed) above
T3 sequence (P20438 whole entry partner): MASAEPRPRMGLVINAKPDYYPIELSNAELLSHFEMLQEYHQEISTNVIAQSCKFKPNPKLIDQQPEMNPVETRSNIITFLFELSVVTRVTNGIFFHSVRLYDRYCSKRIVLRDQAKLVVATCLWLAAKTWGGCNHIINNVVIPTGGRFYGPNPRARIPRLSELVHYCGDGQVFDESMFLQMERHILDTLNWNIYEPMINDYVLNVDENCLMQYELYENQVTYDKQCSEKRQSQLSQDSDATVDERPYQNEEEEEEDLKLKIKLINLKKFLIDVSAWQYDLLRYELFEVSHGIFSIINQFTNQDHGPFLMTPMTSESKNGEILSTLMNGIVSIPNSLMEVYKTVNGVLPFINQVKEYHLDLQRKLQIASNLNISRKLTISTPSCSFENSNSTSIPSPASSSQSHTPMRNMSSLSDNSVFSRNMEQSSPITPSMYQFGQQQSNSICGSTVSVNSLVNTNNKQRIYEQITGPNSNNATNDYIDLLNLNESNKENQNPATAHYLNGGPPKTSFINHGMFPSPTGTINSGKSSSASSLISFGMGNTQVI
T3 sequence (P20486 whole entry partner): as the sequence (P20486 whole entry partner) above
Assay: as above
Assay type: biochemical
Conditions: Table S2; purified protein substrate; relative values, not divided by [S]

Going from B1 to B2, the “kcat/KM, Cln2” value falls from 0.708 relative units to 0.524 relative units.

First: B3
Second: B4
The “kcat/KM, Cln2” value of the first is lower: 0.200 relative units for the first, 0.283 relative units for the second.

For B5, the “kcat/KM, Cln2” value was 0.004 relative units.

Molecular target: T4, Clb5-Cdk1 (Saccharomyces cerevisiae, UniProt P00546+P30283)
T4 construct: We purified the four cyclin-Cdk1 complexes from yeast; made in house; host or cells: S. cerevisiae strain DOM0076 (gal-CLB5-TAP, sic1 deleted); Cks1 from bacteria
T4 sequence (P00546 2-298 limits assumed): as the sequence (P00546 2-298 limits assumed) above
T4 sequence (P30283 whole entry partner): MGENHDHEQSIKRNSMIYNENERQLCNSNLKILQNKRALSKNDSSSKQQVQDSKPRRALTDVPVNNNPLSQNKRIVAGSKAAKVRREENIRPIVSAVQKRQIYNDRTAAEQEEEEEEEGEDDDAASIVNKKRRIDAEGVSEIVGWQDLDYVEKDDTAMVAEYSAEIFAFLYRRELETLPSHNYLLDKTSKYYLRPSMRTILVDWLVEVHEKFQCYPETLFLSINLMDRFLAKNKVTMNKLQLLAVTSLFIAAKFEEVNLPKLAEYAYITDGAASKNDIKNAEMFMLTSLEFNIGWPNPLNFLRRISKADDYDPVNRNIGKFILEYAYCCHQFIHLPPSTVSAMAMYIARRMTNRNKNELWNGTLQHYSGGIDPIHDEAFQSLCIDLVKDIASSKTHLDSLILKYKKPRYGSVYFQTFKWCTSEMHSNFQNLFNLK
T4 sequence (P20486 whole entry partner): as the sequence (P20486 whole entry partner) above
Assay: as above
Assay type: biochemical
Conditions: Table S2; purified protein substrate; relative values, not divided by [S]

Compared with B1, B2 is lower in “kcat/KM, Clb5” value: 0.502 relative units for the first, 0.020 relative units for the second.

Going from B3 to B4, the “kcat/KM, Clb5” value falls from 0.020 relative units to 0.016 relative units.

With B5 the “kcat/KM, Clb5” value was 0.118 relative units.

Molecular target: T5, Clb3hpm-Cdk1 (Saccharomyces cerevisiae, UniProt P00546+P24870)
T5 construct: made in house; host or cells: S. cerevisiae strain MK0168 (gal-CLB3hpm-TAP, sic1 deleted); Cks1 from bacteria
Assay: as above
Assay type: biochemical
Conditions: Table S2; purified protein substrate; relative values, not divided by [S]
Method in brief: (§1)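 Yeast cyclin-Cdk1 complexes (1–10 nM, TAP-purified) phosphorylated 6His-T33-Sic1ΔC (other S/T-P sites mutated to Ala-Ala) or recombinant substrates at 0.5–2 μM, below KM, with 32P-γ-ATP. Initial velocities (≤10% turnover) from two or more time points, SDS-PAGE stopped; relative kcat/KM from v0 ratios.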

Going from B1 to B2, the “kcat/KM, Clb3hpm” value falls from 2.397 relative units to 0.009 relative units.

Going from B3 to B4, the “kcat/KM, Clb3hpm” value falls from 0.013 relative units to 0.006 relative units.

In the case of B5, the “kcat/KM, Clb3hpm” value is reported as 0.075 relative units.

Molecular target: T6, Clb5hpm-Cdk1 (Saccharomyces cerevisiae, UniProt P00546)
T6 construct: made in house; host or cells: S. cerevisiae strain DOM0963 (gal-CLB5hpm-TAP, sic1 deleted); Cks1 from bacteria
T6 sequence (P00546 2-298 limits assumed): as the sequence (P00546 2-298 limits assumed) above
Assay: as above
Assay type: biochemical
Conditions: Table S2; purified protein substrate; relative values, not divided by [S]
Method in brief: as §1

Going from B1 to B2, the “kcat/KM, Clb5hpm” value falls from 0.593 relative units to 0.002 relative units.

First: B3
Second: B4
The “kcat/KM, Clb5hpm” value of the first is higher: 0.007 relative units for the first, 0.001 relative units for the second.

In the case of B5, the “kcat/KM, Clb5hpm” value is reported as 0.058 relative units.

Molecular target: T7, Clb2hpm-Cdk1 (Saccharomyces cerevisiae, UniProt P00546)
T7 construct: made in house; host or cells: S. cerevisiae strain DOM0964 (gal-CLB2hpm-TAP, sic1 deleted); Cks1 from bacteria
T7 sequence (P00546 2-298 limits assumed): as above
Assay: as above
Assay type: biochemical
Conditions: Table S2; purified protein substrate; relative values, not divided by [S]
Method in brief: as §1

Going from B1 to B2, the “kcat/KM, Clb2hpm” value falls from 2.136 relative units to 0.046 relative units.

Going from B3 to B4, the “kcat/KM, Clb2hpm” value falls from 0.084 relative units to 0.027 relative units.

In the case of B5, the “kcat/KM, Clb2hpm” value is reported as 0.481 relative units.
